Measurements as given in paper PMC2756588.

T1: Bud14, P27637
T1 sequence (P27637 247-328, looked up): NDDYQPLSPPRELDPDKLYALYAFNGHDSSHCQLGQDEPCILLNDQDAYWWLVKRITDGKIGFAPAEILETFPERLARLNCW

T2: Bzz1-2, P38822
T2 sequence (P38822 568-633, looked up): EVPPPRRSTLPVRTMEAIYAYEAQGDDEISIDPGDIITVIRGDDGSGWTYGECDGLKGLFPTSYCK

T3: Lsb3, P43603
T3 sequence (P43603 385-451, looked up): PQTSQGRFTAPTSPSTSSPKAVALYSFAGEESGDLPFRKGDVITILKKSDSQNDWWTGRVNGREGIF

T4: Myo5, Q04439
T4 sequence (Q04439 1072-1160, looked up): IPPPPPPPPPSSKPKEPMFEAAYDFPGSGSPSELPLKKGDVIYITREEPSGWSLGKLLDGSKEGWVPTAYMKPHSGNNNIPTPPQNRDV

T5: Cyk3, Q07533
T5 sequence (Q07533 1-83, looked up): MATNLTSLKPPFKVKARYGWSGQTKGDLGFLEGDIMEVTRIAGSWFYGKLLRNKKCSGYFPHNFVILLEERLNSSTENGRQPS

T6: Boi2, P39969
T6 sequence (P39969 32-116, looked up): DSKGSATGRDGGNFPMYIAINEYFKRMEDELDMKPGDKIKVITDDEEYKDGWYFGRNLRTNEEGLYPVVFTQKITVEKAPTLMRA

T7: Cdc25, P04821
T7 sequence (P04821 50-136, looked up): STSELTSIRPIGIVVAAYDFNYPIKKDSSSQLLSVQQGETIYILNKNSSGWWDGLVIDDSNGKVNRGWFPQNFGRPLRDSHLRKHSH

T8: Hse1, P38753
T8 sequence (P38753 208-285, looked up): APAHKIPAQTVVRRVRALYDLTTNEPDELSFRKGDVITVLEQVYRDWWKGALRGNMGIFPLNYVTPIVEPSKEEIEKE

T9: Fus1, P11710
T9 sequence (P11710 432-512, looked up): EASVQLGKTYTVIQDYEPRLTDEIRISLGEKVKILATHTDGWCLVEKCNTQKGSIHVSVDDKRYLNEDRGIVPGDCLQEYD

T10: Pex13, P80667
T10 sequence (P80667 295-386, looked up): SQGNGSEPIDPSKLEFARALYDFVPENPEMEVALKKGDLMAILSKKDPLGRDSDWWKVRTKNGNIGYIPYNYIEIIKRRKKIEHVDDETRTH

T11: Hof1, Q05080
T11 sequence (Q05080 590-669, looked up): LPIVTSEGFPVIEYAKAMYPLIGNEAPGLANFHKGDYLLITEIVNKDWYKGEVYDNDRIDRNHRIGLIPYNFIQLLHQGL

T12: Lsb1, P53281
T12 sequence (P53281 45-122, looked up): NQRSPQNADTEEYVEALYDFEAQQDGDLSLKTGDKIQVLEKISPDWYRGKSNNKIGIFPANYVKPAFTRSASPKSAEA

T13: Pin3, Q06449
T13 sequence (Q06449 53-122, looked up): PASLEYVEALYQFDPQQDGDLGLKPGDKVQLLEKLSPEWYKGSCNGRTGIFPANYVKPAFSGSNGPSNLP

T14: Sla1-3, P32790
T14 sequence (P32790 344-424, looked up): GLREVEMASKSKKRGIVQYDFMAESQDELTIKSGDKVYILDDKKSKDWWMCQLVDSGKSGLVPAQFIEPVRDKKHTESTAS

T15: Lsb4, P32793
T15 sequence (P32793 402-468, looked up): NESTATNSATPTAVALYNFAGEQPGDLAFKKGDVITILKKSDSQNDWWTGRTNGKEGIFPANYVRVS

T16: Bbc1, P47068
T16 sequence (P47068 1-78, looked up): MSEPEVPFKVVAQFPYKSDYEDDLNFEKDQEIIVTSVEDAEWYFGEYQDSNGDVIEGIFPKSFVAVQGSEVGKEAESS

T17: Nbp2, Q12163
T17 sequence (Q12163 103-180, looked up): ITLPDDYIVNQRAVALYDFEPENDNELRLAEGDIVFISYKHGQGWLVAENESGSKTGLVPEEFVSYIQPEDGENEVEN

T18: Bzz1-1, P38822
T18 sequence (P38822 478-572, looked up): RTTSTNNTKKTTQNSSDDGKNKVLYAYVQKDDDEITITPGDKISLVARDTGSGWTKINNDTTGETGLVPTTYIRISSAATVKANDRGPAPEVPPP

T19: Sla1-2, P32790
T19 sequence (P32790 60-140, looked up): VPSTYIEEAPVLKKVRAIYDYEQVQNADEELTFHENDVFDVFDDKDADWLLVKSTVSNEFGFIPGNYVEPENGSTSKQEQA

T20: Boi1, P38041
T20 sequence (P38041 1-86, looked up): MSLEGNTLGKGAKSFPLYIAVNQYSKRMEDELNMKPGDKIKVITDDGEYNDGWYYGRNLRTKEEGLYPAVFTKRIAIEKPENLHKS

T21: Abp1, P15891
T21 sequence (P15891 535-592, looked up): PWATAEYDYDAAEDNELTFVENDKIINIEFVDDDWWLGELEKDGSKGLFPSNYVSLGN

B1: unnamed (peptide)
chain: ALRRRLPVTRSKINW
B2: unnamed (peptide)
chain: QHQQRQPKRPKRYSL
B3: unnamed (peptide)
chain: RSLRKRPTSPSISGS
B4: unnamed (peptide)
chain: GRLRPKRIAPWHLIQ

How the values were obtained:
Experiment in all cases: SPOT array
Bud14, P27637 = biological target: T1, Bud14, P27637; conditions: median of control spots 956
Bzz1-2, P38822 = biological target: T2, Bzz1-2, P38822; conditions: median of control spots 4538
Sho1, P40073 = conditions: median of control spots 1148
Sho1, P40073, sequence (P40073 287-367): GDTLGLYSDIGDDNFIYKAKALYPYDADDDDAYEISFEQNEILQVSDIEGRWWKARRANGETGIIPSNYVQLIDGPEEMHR

Lsb3, P43603 = biological target: T3, Lsb3, P43603; conditions: median of control spots 406
Myo5, Q04439 = biological target: T4, Myo5, Q04439; conditions: median of control spots 471
Cyk3, Q07533 = biological target: T5, Cyk3, Q07533; conditions: median of control spots 1451
Boi2, P39969 = biological target: T6, Boi2, P39969; conditions: median of control spots 1161
Cdc25, P04821 = biological target: T7, Cdc25, P04821; conditions: median of control spots 969
Hse1, P38753 = biological target: T8, Hse1, P38753; conditions: median of control spots 1727
Bem1-1, P29366 = conditions: median of control spots 4282
Bem1-1, P29366, sequence (P29366 55-141): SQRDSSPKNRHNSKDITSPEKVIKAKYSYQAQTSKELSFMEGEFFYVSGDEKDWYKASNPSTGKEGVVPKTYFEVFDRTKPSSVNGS

Fus1, P11710 = biological target: T9, Fus1, P11710; conditions: median of control spots 1200
Pex13, P80667 = biological target: T10, Pex13, P80667; conditions: median of control spots 1341
Hof1, Q05080 = biological target: T11, Hof1, Q05080; conditions: median of control spots 4086
Lsb1, P53281 = biological target: T12, Lsb1, P53281; conditions: median of control spots 388
Pin3, Q06449 = biological target: T13, Pin3, Q06449; conditions: median of control spots 2171
Myo3, P36006 = conditions: median of control spots 468
Sla1-3, P32790 = biological target: T14, Sla1-3, P32790; conditions: median of control spots 5475
Lsb4, P32793 = biological target: T15, Lsb4, P32793; conditions: median of control spots 397
Rvs167, P39743 = conditions: median of control spots 2707
Rvs167, P39743, sequence (P39743 419-482): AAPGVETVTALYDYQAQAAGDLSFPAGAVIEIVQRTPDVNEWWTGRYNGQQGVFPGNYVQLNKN

Bbc1, P47068 = biological target: T16, Bbc1, P47068; conditions: median of control spots 796
GST = conditions: median of control spots 978
Nbp2, Q12163 = biological target: T17, Nbp2, Q12163; conditions: median of control spots 357
Bem1-2, P29366 = conditions: median of control spots 4347
Bem1-2, P29366, sequence (P29366 139-227): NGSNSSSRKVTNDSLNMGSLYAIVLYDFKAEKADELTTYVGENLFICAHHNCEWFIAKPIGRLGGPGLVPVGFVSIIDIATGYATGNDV

Bzz1-1, P38822 = biological target: T18, Bzz1-1, P38822; conditions: median of control spots 4446
Sla1-2, P32790 = biological target: T19, Sla1-2, P32790; conditions: median of control spots 712
Boi1, P38041 = biological target: T20, Boi1, P38041; conditions: median of control spots 1162
Abp1, P15891 = biological target: T21, Abp1, P15891; conditions: median of control spots 935

Row | Binder | SPOT intensity (Bud14, P27637) | SPOT intensity (Bzz1-2, P38822) | SPOT intensity (Sho1, P40073) | SPOT intensity (Lsb3, P43603) | SPOT intensity (Myo5, Q04439) | SPOT intensity (Cyk3, Q07533) | SPOT intensity (Boi2, P39969) | SPOT intensity (Cdc25, P04821) | SPOT intensity (Hse1, P38753) | SPOT intensity (Bem1-1, P29366) | SPOT intensity (Fus1, P11710) | SPOT intensity (Pex13, P80667) | SPOT intensity (Hof1, Q05080) | SPOT intensity (Lsb1, P53281) | SPOT intensity (Pin3, Q06449) | SPOT intensity (Myo3, P36006) | SPOT intensity (Sla1-3, P32790) | SPOT intensity (Lsb4, P32793) | SPOT intensity (Rvs167, P39743) | SPOT intensity (Bbc1, P47068) | further results
1 | B1 | 6 | 7 | 196 | 4 | 0 | 2 | 1 | 46 | 35 | 0 | 25 | 4 | 14 | 46 | 10 | 10 | 73 | 7 | 8 | 245 | SPOT intensity (GST): 2; SPOT intensity (Nbp2, Q12163): 149; SPOT intensity (Bem1-2, P29366): 7; SPOT intensity (Bzz1-1, P38822): 0; SPOT intensity (Sla1-2, P32790): 0; SPOT intensity (Boi1, P38041): 13; SPOT intensity (Abp1, P15891): 134
2 | B2 | 8 | 17 | 115 | 36 | 2 | 1 | 4 | 22 | 33 | 1 | 55 | 6 | 3 | 5 | 2 | 2 | 78 | 101 | 0 | 211 | SPOT intensity (GST): 8; SPOT intensity (Nbp2, Q12163): 21; SPOT intensity (Bem1-2, P29366): 147; SPOT intensity (Bzz1-1, P38822): 0; SPOT intensity (Sla1-2, P32790): 5; SPOT intensity (Boi1, P38041): 13; SPOT intensity (Abp1, P15891): 106
3 | B3 | 22 | 21 | 295 | 14 | 2 | 1 | 0 | 52 | 55 | 0 | 44 | 5 | 13 | 26 | 8 | 9 | 44 | 5 | 2 | 175 | SPOT intensity (GST): 3; SPOT intensity (Nbp2, Q12163): 198; SPOT intensity (Bem1-2, P29366): 5; SPOT intensity (Bzz1-1, P38822): 0; SPOT intensity (Sla1-2, P32790): 1; SPOT intensity (Boi1, P38041): 5; SPOT intensity (Abp1, P15891): 224
4 | B4 | 3 | 4 | 83 | 0 | 0 | 1 | 1 | 0 | 9 | 0 | 6 | 8 | 1 | 0 | 5 | 0 | 41 | 0 | 8 | 57 | SPOT intensity (GST): 0; SPOT intensity (Nbp2, Q12163): 10; SPOT intensity (Bem1-2, P29366): 6; SPOT intensity (Bzz1-1, P38822): 0; SPOT intensity (Sla1-2, P32790): 0; SPOT intensity (Boi1, P38041): 2; SPOT intensity (Abp1, P15891): 25
